{"source": "IntAct's records for PubMed 12819209", "parents": {"B1": {"name": "Prolactin receptor (Homo sapiens), P16471 (parent)", "chain": "MKENVASATVFTLLLFLNTCLLNGQLPPGKPEIFKCRSPNKETFTCWWRPGTDGGLPTNYSLTYHREGETLMHECPDYITGGPNSCHFGKQYTSMWRTYIMMVNATNQMGSSFSDELYVDVTYIVQPDPPLELAVEVKQPEDRKPYLWIKWSPPTLIDLKTGWFTLLYEIRLKPEKAAEWEIHFAGQQTEFKILSLHPGQKYLVQVRCKPDHGYWSAWSPATFIQIPSDFTMNDTTVWISVAVLSAVICLIIVWAVALKGYSMVTCIFPPVPGPKIKGFDAHLLEKGKSEELLSALGCQDFPPTSDYEDLLVEYLEVDDSEDQHLMSVHSKEHPSQGMKPTYLDPDTDSGRGSCDSPSLLSEKCEEPQANPSTFYDPEVIEKPENPETTHTWDPQCISMEGKIPYFHAGGSKCSTWPLPQPSQHNPRSSYHNITDVCELAVGPAGAPATLLNEAGKDALKSSQTIKSREEGKATQQREVESFHSETDQDTPWLLPQEKTPFGSAKPLDYVEIHKVNKDGALSLLPKQRENSGKPKKPGTPENNKEYAKVSGVMDNNILVLVPDPHAKNVACFEESAKEAPPSLEQNQAEKALANFTATSSKCRLQLGGLDYLDPACFTHSFH"}}, "data": [{"variants_of": "B1", "settings": "with 1433z_human YWHAZ", "values": [{"variant": "C413A;S414A;T415A", "effect of a mutation on the interaction": "decreasing interaction strength"}, {"variant": "T415A", "effect of a mutation on the interaction": "decreasing interaction strength"}]}]}
